Experimental data published in article PMC5034325.

Molecular target: human taste receptor T1R2-T1R3 (human) (UniProt Q8TE23)
UniProt Q8TE23, sequence (Q8TE23 20-839, chain 1 of 2): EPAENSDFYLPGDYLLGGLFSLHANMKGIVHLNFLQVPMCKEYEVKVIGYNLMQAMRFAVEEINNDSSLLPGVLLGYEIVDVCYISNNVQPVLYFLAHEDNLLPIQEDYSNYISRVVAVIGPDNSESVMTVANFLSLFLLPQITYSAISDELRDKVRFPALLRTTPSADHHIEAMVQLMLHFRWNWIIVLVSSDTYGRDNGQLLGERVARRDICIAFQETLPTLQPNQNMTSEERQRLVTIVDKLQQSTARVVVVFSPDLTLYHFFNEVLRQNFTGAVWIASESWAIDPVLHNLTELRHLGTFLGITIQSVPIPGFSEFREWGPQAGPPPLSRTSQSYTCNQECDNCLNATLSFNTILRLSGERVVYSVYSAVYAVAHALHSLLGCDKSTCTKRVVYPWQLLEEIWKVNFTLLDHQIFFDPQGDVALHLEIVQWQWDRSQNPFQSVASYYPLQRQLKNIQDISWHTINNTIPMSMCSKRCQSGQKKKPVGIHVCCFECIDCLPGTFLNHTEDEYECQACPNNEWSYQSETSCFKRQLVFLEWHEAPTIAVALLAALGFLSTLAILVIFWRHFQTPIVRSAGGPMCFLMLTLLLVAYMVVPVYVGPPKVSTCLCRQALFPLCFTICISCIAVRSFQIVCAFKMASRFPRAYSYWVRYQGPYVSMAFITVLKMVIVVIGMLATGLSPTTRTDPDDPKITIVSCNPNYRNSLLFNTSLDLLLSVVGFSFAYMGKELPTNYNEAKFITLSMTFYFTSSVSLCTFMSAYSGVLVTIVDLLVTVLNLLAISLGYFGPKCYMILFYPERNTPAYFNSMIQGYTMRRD
UniProt Q8TE23, sequence (Q7RTX0 21-852, chain 2 of 2, further chain): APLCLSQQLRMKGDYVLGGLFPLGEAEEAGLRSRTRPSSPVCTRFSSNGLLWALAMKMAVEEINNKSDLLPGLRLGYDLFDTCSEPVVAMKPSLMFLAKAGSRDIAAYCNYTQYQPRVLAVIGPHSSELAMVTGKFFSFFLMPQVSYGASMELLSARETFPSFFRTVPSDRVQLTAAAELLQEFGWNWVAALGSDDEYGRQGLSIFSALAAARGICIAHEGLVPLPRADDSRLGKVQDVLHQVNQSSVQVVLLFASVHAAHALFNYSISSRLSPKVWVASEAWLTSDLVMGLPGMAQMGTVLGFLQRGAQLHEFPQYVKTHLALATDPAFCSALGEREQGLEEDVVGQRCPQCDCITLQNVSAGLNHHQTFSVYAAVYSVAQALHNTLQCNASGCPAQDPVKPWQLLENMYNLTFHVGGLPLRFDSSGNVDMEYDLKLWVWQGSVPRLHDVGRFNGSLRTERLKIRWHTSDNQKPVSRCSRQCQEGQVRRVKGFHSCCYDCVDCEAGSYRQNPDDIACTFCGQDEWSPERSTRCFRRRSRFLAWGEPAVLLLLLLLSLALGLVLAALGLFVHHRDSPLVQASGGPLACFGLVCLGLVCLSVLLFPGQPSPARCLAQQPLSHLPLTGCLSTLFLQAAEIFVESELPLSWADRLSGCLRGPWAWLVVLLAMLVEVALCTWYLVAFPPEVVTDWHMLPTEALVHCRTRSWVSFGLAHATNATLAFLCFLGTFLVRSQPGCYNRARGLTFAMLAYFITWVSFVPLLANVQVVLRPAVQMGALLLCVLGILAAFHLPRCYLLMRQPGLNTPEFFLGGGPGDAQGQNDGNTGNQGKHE

In the case of “C41S, Y65R, S67K, D68N-MNEI (Mut1) (ligand)”, the sweetness threshold, triangle test by a panel of tasters, 5 to 500 nM (also printed as 2.50 mg/L) is reported as 223 nM.

“E23Q, Q28K, C41S, Y65R-MNEI (Mut3) (ligand)” gave a sweetness threshold, triangle test by a panel of tasters, 5 to 500 nM (also printed as 0.28 mg/L) of 25 nM.

In the case of Q28K, C41S, Y65R-MNEI (Mut2) (ligand), the sweetness threshold, triangle test by a panel of tasters, 5 to 500 nM (also printed as 0.40 mg/L) is reported as 36 nM.

Y65R-MNEI (ligand) was tested, and the sweetness threshold, triangle test by a panel of tasters, 5 to 500 nM (also printed as 0.62 mg/L) was 55 nM.
